These results are taken from PMC3328371.

The target in this assay is Dock8 (endogenous) (UniProt Q8C147). Nature of the assay: anti-Flag co-IP, Dock8 immunoblot. The following applies: reference: Flag-Mob1B wild type; sites T12,T35. (Immunoblotting shows a protein as a band on a membrane.)

Take “Flag-Mob1B (previously MOBKL1A) (from UniProt Q7L9L4) Flag-Mob1B[Thr12Ala/Thr35Ala]”: the “binding against the reference” value is “lost”.
